The assay deals with different strains of S. pyogenes (surface of the bacteria).

B1: α2-macroglobulin (native α2M) (protein, UniProt P01023 24-1474, looked up)
chain: SVSGKPQYMVLVPSLLHTETTEKGCVLLSYLNETVTVSASLESVRGNRSLFTDLEAENDVLHCVAFAVPKSSSNEEVMFLTVQVKGPTQEFKKRTTVMVKNEDSLVFVQTDKSIYKPGQTVKFRVVSMDENFHPLNELIPLVYIQDPKGNRIAQWQSFQLEGGLKQFSFPLSSEPFQGSYKVVVQKKSGGRTEHPFTVEEFVLPKFEVQVTVPKIITILEEEMNVSVCGLYTYGKPVPGHVTVSICRKYSDASDCHGEDSQAFCEKFSGQLNSHGCFYQQVKTKVFQLKRKEYEMKLHTEAQIQEEGTVVELTGRQSSEITRTITKLSFVKVDSHFRQGIPFFGQVRLVDGKGVPIPNKVIFIRGNEANYYSNATTDEHGLVQFSINTTNVMGTSLTVRVNYKDRSPCYGYQWVSEEHEEAHHTAYLVFSPSKSFVHLEPMSHELPCGHTQTVQAHYILNGGTLLGLKKLSFYYLIMAKGGIVRTGTHGLLVKQEDMKGHFSISIPVKSDIAPVARLLIYAVLPTGDVIGDSAKYDVENCLANKVDLSFSPSQSLPASHAHLRVTAAPQSVCALRAVDQSVLLMKPDAELSASSVYNLLPEKDLTGFPGPLNDQDNEDCINRHNVYINGITYTPVSSTNEKDMYSFLEDMGLKAFTNSKIRKPKMCPQLQQYEMHGPEGLRVGFYESDVMGRGHARLVHVEEPHTETVRKYFPETWIWDLVVVNSAGVAEVGVTVPDTITEWKAGAFCLSEDAGLGISSTASLRAFQPFFVELTMPYSVIRGEAFTLKATVLNYLPKCIRVSVQLEASPAFLAVPVEKEQAPHCICANGRQTVSWAVTPKSLGNVNFTVSAEALESQELCGTEVPSVPEHGRKDTVIKPLLVEPEGLEKETTFNSLLCPSGGEVSEELSLKLPPNVVEESARASVSVLGDILGSAMQNTQNLLQMPYGCGEQNMVLFAPNIYVLDYLNETQQLTPEIKSKAIGYLNTGYQRQLNYKHYDGSYSTFGERYGRNQGNTWLTAFVLKTFAQARAYIFIDEAHITQALIWLSQRQKDNGCFRSSGSLLNNAIKGGVEDEVTLSAYITIALLEIPLTVTHPVVRNALFCLESAWKTAQEGDHGSHVYTKALLAYAFALAGNQDKRKEVLKSLNEEAVKKDNSVHWERPQKPKAPVGHFYEPQAPSAEVEMTSYVLLAYLTAQPAPTSEDLTSATNIVKWITKQQNAQGGFSSTQDTVVALHALSKYGAATFTRTGKAAQVTIQSSGTFSSKFQVDNNNRLLLQQVSLPELPGEYSMKVTGEGCVYLQTSLKYNILPEKEEFPFALGVQTLPQTCDEPKAHTSFQISLSVSYTGSRSASNMAIVDVKMVSGFIPLKPTVKMLERSNHVSRTEVSSNHVLIYLDKVSNQTLSLFFTVLQDVPVRDLKPAIVKVYDYYETDEFAIAEYNAPCSKDLGNA
In turn, B1 displayed a % of added radiolabeled α2M bound of 0 to 76%.

The values are drawn from patent US20020061306A1.
